Laboratory results from paper PMC12858062 (PLOS Pathogens, 2026).

Tests used:
Test in all cases: far-Western, overlay or dot blot; western blot: non-reduced lysate of P. falciparum NF54 iGP2 stage V gametocytes separated by SDS-PAGE, probed with 0.1 µg/mL antibodies for 1 h at RT; HRP anti-human IgG
Settings in all cases: one partner purified
[1] = target: C1-Fc (anti-Pfs48/45 nanobody C1 fused to hinge and Fc of human IgG1) (alpaca)
[2] = target: G3-Fc (anti-Pfs48/45 nanobody G3 fused to hinge and Fc of human IgG1) (alpaca)
[3] = target: D4-Fc (anti-Pfs48/45 nanobody D4 fused to hinge and Fc of human IgG1) (alpaca)
[4] = target: C3-Fc (anti-Pfs48/45 nanobody C3 fused to hinge and Fc of human IgG1) (alpaca)
[5] = target: H4-Fc (anti-Pfs48/45 nanobody H4 fused to hinge and Fc of human IgG1) (alpaca)
[6] = target: C7-Fc (anti-Pfs48/45 nanobody C7 fused to hinge and Fc of human IgG1) (alpaca)
[7] = target: F6-Fc (anti-Pfs48/45 nanobody F6 fused to hinge and Fc of human IgG1) (alpaca)
[8] = target: A4-Fc (anti-Pfs48/45 nanobody A4 fused to hinge and Fc of human IgG1) (alpaca)
[9] = target: D3-Fc (anti-Pfs48/45 nanobody D3 fused to hinge and Fc of human IgG1) (alpaca)
[10] = target: B2-Fc (anti-Pfs48/45 nanobody B2 fused to hinge and Fc of human IgG1) (alpaca)

Measured: binding result

B1: Full-length Pfs48/45 from P. falciparum NF54 iGP2 stage V gametocytes (natural protein)
chain: NNDFCKPSSLNSEISGFIGYKCNFSNEGVHNLKPDMRERRSIFCTIHSYFIYDKIRLIIPKKSSSPEFKILPEKCFQKVYTDYENRVETDISELGLIEYEIEENDTNPNYNERTITISPFSPKDIEFFCFCDNTEKVISSIEGRSAMVHVRVLKYPHNILFTNLTNDLFTYLPKTYNESNFVSNVLEVELNDGELFVLACELINKKCFQEGKEKALYKSNKIIYHKNLTIFKAPFYVTSKDVNTECTCKFKNNNYKIVLKPKYEKKVIHGCNFSSNVSSKHTFTDSLDISLVDDSAHISCNVHLSEPKYNHLVGLNCPGDIIPDCFFQVYQPESEELEPSNIVYLDSQINIGDIEYYEDAEGDDKIKLFGIVGSIPKTTSFTCICKKDKKSAYMTVTID
binds: [1] | [2] | [3] | [4] | [5] | [6] | [7] | [8] | [9] | [10]
